Test results reported in publication doi:10.1101/181321 (bioRxiv, 2017).
Values belong to the molecule of their own block, whether it stands above or below them.

Columns and labels:
[1] = molecular target: C-terminal biotinylated histone H3 peptide (1 to 35 a.a.) (UniProt P68431); assay: SPR
[2] = molecular target: T1, C-terminal region of human Importin4 (C-Importin4, residues 668 to 1081) (human, UniProt Q8TEX9 668-1081); assay: SPR
T1 sequence: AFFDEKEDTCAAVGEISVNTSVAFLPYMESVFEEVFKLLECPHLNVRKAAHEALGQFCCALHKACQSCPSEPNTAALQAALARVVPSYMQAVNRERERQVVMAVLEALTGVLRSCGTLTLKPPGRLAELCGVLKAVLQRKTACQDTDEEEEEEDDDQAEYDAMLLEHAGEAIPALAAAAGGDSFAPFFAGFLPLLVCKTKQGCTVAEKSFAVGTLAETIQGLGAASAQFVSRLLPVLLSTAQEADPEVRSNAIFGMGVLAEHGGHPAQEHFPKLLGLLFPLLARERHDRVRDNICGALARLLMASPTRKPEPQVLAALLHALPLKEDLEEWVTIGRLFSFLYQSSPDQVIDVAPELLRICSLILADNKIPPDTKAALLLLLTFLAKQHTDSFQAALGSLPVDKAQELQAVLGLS

Kd [1]: 1600 nM
Molecule: C-terminal region of human Importin4 (C-Importin4, residues 668 to 1081) (from UniProt Q8TEX9 668-1081) (domain or fragment)

binding result [2]: binds
B1: histone H3 peptide (1-18 a.a.) (peptide)
peptide: ARTKQTARKSTGGKAPRK
